This is an account of results in the Immune Epitope Database (IEDB).

The target in test [1] is HLA-B*07:02. The test can be described thus: IEDB peptide-MHC binding, purified MHC/competitive/radioactivity; filed as Kd, often an IC50 or EC50 that approximates it; ≥ and ≤ were set here for values at or beyond the usual limits of such assays.
Test [2] has as its target HLA-B*54:01. Described as above.
Test [3] deals with HLA-B*51:01. The description is as above.
Test [4] concerns the target HLA-B*53:01. The description is as above.
The target in test [5] is HLA-B*35:01. Described as above.
Test [6] deals with HLA-B*15:01. The test can be described thus: IEDB peptide-MHC binding, purified MHC/competitive/fluorescence; ≥ and ≤ were set here for values at or beyond the usual limits of such assays. To be noted: source organism: Zaire ebolavirus.
In test [7] the target is HLA-A*02:01. Described as above. The settings on record: source organism: Zaire ebolavirus.
Test [8] deals with HLA-B*07:02. The test is described as above.
Test [9] deals with HLA-B*57:01. Kind of test: IEDB peptide-MHC binding, purified MHC/competitive/radioactivity; filed as Kd, often an IC50 or EC50 that approximates it; ≥ and ≤ were set here for values at or beyond the usual limits of such assays. The settings on record: source organism: Dengue virus 4 Philippines/H241/1956.
The target in test [10] is HLA-B*58:01. The description is as above.
Test [11] addresses HLA-A*02:02. The test is described as above. The settings on record: source organism: Vaccinia virus WR.
Test [12] has as its target HLA-A*68:02. Described as above. The settings on record: source organism: Vaccinia virus WR.
Test [13] concerns the target HLA-A*02:03. The test is described as above. To be noted: source organism: Vaccinia virus WR.
The target in test [14] is HLA-A*02:01. Described as above. To be noted: source organism: Vaccinia virus WR.
Test [15] concerns the target HLA-A*02:06. Described as above. To be noted: source organism: Vaccinia virus WR.
The target in test [16] is HLA-B*15:01. The test can be described thus: IEDB peptide-MHC binding, purified MHC/competitive/fluorescence; filed as Kd, often an IC50 or EC50 that approximates it; ≥ and ≤ were set here for values at or beyond the usual limits of such assays. To be noted: source organism: Escherichia coli B171.
For test [17], the target named is HLA-A*03:01. Described as above.
For test [18], the target named is HLA-A*30:01. Kind of test: IEDB peptide-MHC binding, purified MHC/competitive/radioactivity; filed as Kd, often an IC50 or EC50 that approximates it; ≥ and ≤ were set here for values at or beyond the usual limits of such assays. To be noted: source organism: Dengue virus 2 Jamaica/1409/1983.
The target in test [19] is HLA-A*24:02. Kind of test: IEDB peptide-MHC binding, purified MHC/competitive/fluorescence; ≥ and ≤ were set here for values at or beyond the usual limits of such assays. To be noted: source organism: Zaire ebolavirus.
Setting [20] is: source organism: SARS coronavirus Tor2.
The mark [21] stands for this setting: source organism: Vaccinia virus WR.
The mark [22] stands for this setting: source organism: Lymphocytic choriomeningitis virus (strain WE).
The mark [23] stands for this setting: source organism: Triticum aestivum.

On to CPAEIVDTV, for which the Kd – broadly, a measure of binding affinity in units of concentration – in test [1] (setting [20]) stood at 0.893 µM; in [2] (setting [20]), 0.00999 µM; in [3] (setting [20]) it was 0.00188 µM; in test [4] (setting [20]), 0.121 µM; in test [5] (setting [20]), 0.196 µM.
For the sequence NPNCLEWLRA, the Kd was 17.4 µM in test [1] (setting [21]); 0.0202 µM in test [2] (setting [21]); no less than 69.6 µM in test [3] (setting [21]); 2.05 µM in test [4] (setting [21]); 1.16 µM in [5] (setting [21]).
In the case of IGLAWIPYF, the half-inhibitory concentration (IC50) (usually the concentration that gives 50% inhibition) in [6] is no less than 153 µM; in test [7], 5.68 µM.
Sequence LPNPAFIHI came in with an IC50 in [8] (source organism: Variola virus) of 11 µM.
Regarding GTSETFSMGL, in test [9], the Kd is 13.5 µM.
With ISSTPLAENT, the dissociation constant (Kd) in [10] (source organism: Dengue virus 4 Dominica/814669/1981) stood at 0.951 µM.
As for GPHRTIHHA, the half-inhibitory concentration (IC50) in test [8] (source organism: Zaire ebolavirus) is 5.75 µM.
As for AFEFINSLLK, the Kd in [1] (setting [21]) is no less than 69.6 µM; in test [2] (setting [21]), no less than 69.9 µM; in [11], 5.48 µM; in test [3] (setting [21]), no less than 69.6 µM; in [4] (setting [21]), no less than 69.9 µM; in test [12], 11.5 µM. The Kd in [13] is no less than 20.6 µM; in [14], 12.1 µM; in test [15], no less than 42.8 µM; in test [5] (setting [21]), no less than 69.9 µM.
On to VMAGVFARY, for which the Kd in test [16] was determined as 0.0617 µM; in [17] (source organism: Escherichia coli B171), 0.0214 µM.
For the sequence GQSPARTSS, the IC50 in [6] was found to be 26 µM.
In [8] (source organism: H1N1 subtype Influenza A/Oklahoma/7485/01), AAEAMEVA had an IC50 of no less than 1000 µM.
As for MPEWVNFKF, the dissociation constant (Kd) in [1] (setting [22]) is 2.21 µM; in test [2] (setting [22]), 1 µM; in [3] (setting [22]), no less than 20.4 µM; in [4] (setting [22]), 0.02 µM; in [5] (setting [22]), 0.00871 µM.
As for HPNPKGFCDL, the Kd was found to be 0.968 µM in test [1] (setting [20]); 9.77 µM in test [2] (setting [20]); 0.923 µM in test [3] (setting [20]); 0.698 µM in test [4] (setting [20]); 0.312 µM in [5] (setting [20]).
Consider QPFLQPQL, for which the dissociation constant (Kd) in [1] (setting [23]) was 0.349 µM; in test [2] (setting [23]), 6.35 µM; in [3] (setting [23]) it was 1.11 µM; in test [4] (setting [23]), no less than 87.7 µM; in test [5] (setting [23]), no less than 87.8 µM.
Consider FPCSICLSGL, for which the Kd stood at 0.0585 µM in test [1] (setting [20]); 0.0652 µM in test [2] (setting [20]); 0.035 µM in test [3] (setting [20]); 0.3 µM in test [4] (setting [20]); 0.123 µM in test [5] (setting [20]).
On to KARSTPFNM, for which the Kd in test [10] (source organism: Dengue virus 2 Jamaica/1409/1983) worked out at 0.194 µM; in [18] it was 0.169 µM.
Sequence KTYYHHTGY gave a Kd in [17] (source organism: Francisella tularensis subsp. holarctica OSU18) of 0.0052 µM.
Consider RAAVEDEEF, for which the Kd in test [10] (source organism: Dengue virus 3 Singapore/8120/1995) turned out to be 0.865 µM.
IRGFPRCRY: the IC50 in test [19] was 66 µM; in [6] it was no less than 242 µM.
